Assay [1] has as its target human PDL1 on helper cells CHO-aAPC-hPDL1 (Promega, Cat #: J1081) (human, UniProt Q9NZQ7 19-290). Briefly: cell-based or functional assay.
Assay [2] concerns the target T1, human PDL1 (hPDL1) expressed on CHO-S cells (CHO-S-hPDL1) (human, UniProt Q9NZQ7 19-290). Nature of the assay: flow cytometry on CHO-S-hPDL1 cells; antibody 1 µg/mL. The method, then: (§1) Then, after one wash with PBS, the cells were incubated with the secondary antibody anti-hIgG-Fc-Alex Flour 647 (RL1-H) (Jackson ImmunoResearch Laboratories, Inc., 109-606-170) at 4° C. for 15 minutes before flow cytometry analysis.

For assay [3], the target named is T2, mouse (Mus musculu) PDL1 (mPDL1) expressed on CHO-S cells (CHO-S-mPDL1) (mouse, UniProt Q9EP73 19-290). Briefly: flow cytometry on CHO-S-mPDL1 cells; antibody 1 µg/mL. The method, then: as §1
Assay [4] deals with T3, monkey (Macaca fascicularis) PDL1 (fasPDL1) expressed on CHO-S cells (CHO-S-fasPDL1) (monkey (Macaca fascicularis), UniProt Q9NZQ7 19-290 (human entry)). Nature of the assay: flow cytometry on CHO-S-fasPDL1 cells; antibody 1 µg/mL. The method, then: as §1
The target in assay [5] is T1, human PDL1 (hPDL1) expressed on CHO-S …. Briefly: flow cytometry on CHO-S-hPDL1 cells; antibody 0.1 µg/mL. The method, then:
as §1
For orientation: In flow cytometry, cells or beads pass a laser one at a time.

The target of assay [6] is T2, mouse (Mus musculu) PDL1 (mPDL1) …. Nature of the assay: flow cytometry on CHO-S-mPDL1 cells; antibody 0.1 µg/mL. The method, then:
as §1

Assay [7] deals with T3, monkey (Macaca fascicularis) PDL1 …. Nature of the assay: flow cytometry on CHO-S-fasPDL1 cells; antibody 0.1 µg/mL. The method, then:
as §1

Assay [8] concerns the target T4, His-tagged human PDL2 protein (hPDL2-his, ACROBiosystems Inc., Cat #: PD2-H5220) (human, UniProt Q9BQ51 20-219).
T4 construct: Bought protein; not shown: His tag
T4 sequence (looked up): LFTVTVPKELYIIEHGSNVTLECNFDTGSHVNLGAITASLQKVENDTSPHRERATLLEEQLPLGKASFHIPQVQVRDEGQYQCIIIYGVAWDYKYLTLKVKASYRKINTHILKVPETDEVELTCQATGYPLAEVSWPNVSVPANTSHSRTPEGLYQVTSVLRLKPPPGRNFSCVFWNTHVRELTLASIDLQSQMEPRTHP
Briefly: SPR Biacore 8K, antibody captured on Protein A chip, His-tagged antigen as analyte. The method, then:
(§2) The His-tagged antigen protein at a concentration of 200 nM was then injected at 30 μL/min for 180 seconds. Dissociation was monitored for 400 seconds. The chip was regenerated after the last injection of each titration with Glycine (pH 2.0, 30 μL/min for 30 seconds).
(In SPR one partner is held on a chip, and binding of the other changes the refractive index at the surface.)

The target of assay [9] is T5, His-tagged human B7-H3 protein (hB7-H3-his, ACROBiosystems Inc., Cat #: B73-H52E2) (human, UniProt Q5ZPR3-2 29-245).
T5 construct: Bought protein; not shown: His tag
T5 sequence (looked up): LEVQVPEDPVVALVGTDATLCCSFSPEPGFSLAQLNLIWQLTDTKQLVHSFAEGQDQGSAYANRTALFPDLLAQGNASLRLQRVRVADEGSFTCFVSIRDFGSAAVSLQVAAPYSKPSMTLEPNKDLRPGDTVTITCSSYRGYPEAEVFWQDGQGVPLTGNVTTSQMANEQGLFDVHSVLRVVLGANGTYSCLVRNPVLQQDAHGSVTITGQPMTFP
Described as above. The method, then: as §2

The target in assay [10] is T6, His-tagged human B7-H2 protein (hB7-H2-his, ACROBiosystems Inc., Cat #: B72-H5221) (human, UniProt O75144 19-258).
T6 construct: Bought protein; not shown: His tag
T6 sequence (looked up): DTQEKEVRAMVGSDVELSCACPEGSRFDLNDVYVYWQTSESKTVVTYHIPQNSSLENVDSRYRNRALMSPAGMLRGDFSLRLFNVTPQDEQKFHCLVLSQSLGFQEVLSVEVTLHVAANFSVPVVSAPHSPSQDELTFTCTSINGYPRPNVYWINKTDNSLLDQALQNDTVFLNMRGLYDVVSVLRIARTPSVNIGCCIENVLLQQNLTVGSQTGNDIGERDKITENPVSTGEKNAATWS
The assay is described as above. The method, then:
as §2

For assay [11], the target named is T7, His-tagged human B7-1 protein (hB7-1-his, Kactus, Cat #: B71-HM480) (human, UniProt P33681 35-242).
T7 construct: Bought protein; not shown: His tag
T7 sequence (looked up): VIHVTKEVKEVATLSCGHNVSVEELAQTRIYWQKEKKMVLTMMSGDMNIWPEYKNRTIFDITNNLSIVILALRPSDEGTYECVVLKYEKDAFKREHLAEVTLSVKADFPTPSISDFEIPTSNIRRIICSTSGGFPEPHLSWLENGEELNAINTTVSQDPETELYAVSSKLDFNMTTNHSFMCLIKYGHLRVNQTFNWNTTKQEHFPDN
Described as above. The method, then:
as §2

Assay [12] concerns the target T8, His-tagged human PDL1 protein (hPDL1-his, ACROBiosystems Inc., Cat #: PD1-H5229) (human, UniProt Q9NZQ7 19-238).
T8 construct: Bought protein; not shown: His tag
Nature of the assay: SPR Biacore 8K, antibody captured on Protein A chip, His-tagged antigen as analyte, 1:1 model. The method, then: (§3) Dissociation was monitored for 400 seconds. The chip was regenerated after the last injection of each titration with Glycine (pH 2.0, 30 μL/min for 30 seconds).

The target of assay [13] is T9, His-tagged Macaca fascicularis PDL1 protein (fasPDL1-his, ACROBiosystems Inc., Cat #: PD1-C52H4) (Macaca fascicularis, UniProt Q9NZQ7 19-238 (human entry)).
T9 construct: Bought protein; also called monkey PDL1; not shown: His tag
The assay is described as above. The method, then: as §3

Assay [14] addresses T10, His-tagged mouse PDL1 protein (mPDL1-his, ACROBiosystems Inc., Cat #: PD1-M5220) (mouse, UniProt Q9EP73 19-238).
T10 construct: Bought protein; not shown: His tag
The assay is described as above. The method, then:
as §3

The source of these data is patent US20260193356A1 (BIOCYTOGEN PHARMACEUTICALS BEIJING, published 2026).

In general, Kd refers to a measure of binding affinity in units of concentration. In general, koff refers to the rate constant with which the complex falls apart. A word on the kon: it is the second-order rate constant of association.

T8 sequence (Q9NZQ7 19-238 limits assumed): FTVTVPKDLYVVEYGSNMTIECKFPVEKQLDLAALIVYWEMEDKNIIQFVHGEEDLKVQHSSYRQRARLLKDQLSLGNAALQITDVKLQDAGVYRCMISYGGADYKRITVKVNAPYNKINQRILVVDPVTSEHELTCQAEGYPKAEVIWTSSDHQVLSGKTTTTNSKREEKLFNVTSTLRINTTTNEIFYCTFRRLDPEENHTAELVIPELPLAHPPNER
T9 sequence (Q9NZQ7 other isoform, or with tags, fused parts or gaps limits assumed): as the sequence (Q9NZQ7 19-238 limits assumed) above, with A33T, A34S, S62N, R68Q, Q82R, F173L, T185A, T192I, H215L counted along it
T2 sequence (Q9EP73 19-290 limits assumed): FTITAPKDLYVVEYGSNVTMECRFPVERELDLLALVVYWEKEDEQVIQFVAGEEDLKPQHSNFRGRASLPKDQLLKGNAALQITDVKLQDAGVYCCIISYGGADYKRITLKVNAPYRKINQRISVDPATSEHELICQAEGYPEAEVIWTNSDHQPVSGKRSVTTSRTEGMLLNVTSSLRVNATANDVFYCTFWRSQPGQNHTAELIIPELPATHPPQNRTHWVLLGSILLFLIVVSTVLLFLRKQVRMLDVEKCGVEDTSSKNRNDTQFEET
T10 sequence (Q9EP73 19-238 limits assumed): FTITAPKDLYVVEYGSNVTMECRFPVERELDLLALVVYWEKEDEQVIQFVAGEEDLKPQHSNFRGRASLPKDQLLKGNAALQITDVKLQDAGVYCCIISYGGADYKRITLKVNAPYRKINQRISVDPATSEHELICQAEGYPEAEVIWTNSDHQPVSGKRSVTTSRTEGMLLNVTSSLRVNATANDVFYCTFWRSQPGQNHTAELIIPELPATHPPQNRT
Sequence of human PDL1 on helper cells CHO-aAPC-hPDL1 (Promega, Cat #: J1081) (Q9NZQ7 19-290 limits assumed): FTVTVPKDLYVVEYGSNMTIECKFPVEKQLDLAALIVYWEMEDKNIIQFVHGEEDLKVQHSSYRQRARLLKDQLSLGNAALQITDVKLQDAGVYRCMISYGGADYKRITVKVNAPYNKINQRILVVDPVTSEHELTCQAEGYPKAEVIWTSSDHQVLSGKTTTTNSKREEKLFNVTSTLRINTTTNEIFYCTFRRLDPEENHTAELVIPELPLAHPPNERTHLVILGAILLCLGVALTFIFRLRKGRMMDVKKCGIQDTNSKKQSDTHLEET
T1 sequence (Q9NZQ7 19-290 limits assumed): as above
T3 sequence (Q9NZQ7 other isoform, or with tags, fused parts or gaps limits assumed): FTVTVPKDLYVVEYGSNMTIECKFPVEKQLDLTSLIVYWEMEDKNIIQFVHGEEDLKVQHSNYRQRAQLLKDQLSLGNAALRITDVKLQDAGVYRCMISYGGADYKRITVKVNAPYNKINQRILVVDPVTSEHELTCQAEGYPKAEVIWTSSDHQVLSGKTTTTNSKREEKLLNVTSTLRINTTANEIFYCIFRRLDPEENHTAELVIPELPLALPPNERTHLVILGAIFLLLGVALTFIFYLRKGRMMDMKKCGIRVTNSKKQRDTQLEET

B1: B20B02-N297A (antibody, human IgG1, V domains shown)
VH: QVQLQQSGGGVVQPGRSLRLSCAASGFTFSTYGMHWVRQAPGKGLEWVAALSFDGGNIYYGDSVKGRFTISRDNSKNTLYLQMNSLRAEDTALYYCAKARLPYSYDAVDYWGQGTLVTVSS
VL: EIVMTQSPATLSVSPGERATLSCRASQSVSSNLAWYQQKPGQAPRLLIYDTSTRAIGIPARFSGSGSGTEFTLTISSLQSEDFAIYYCHQYNFWPPITLGQGTRLEIK
Regarding B1, the “IC50 (µg/mL), Blockade of the binding of PDL1 and PD-1 (luciferase, CHO-aAPC-hPDL1 + Jurkat-Luc-hPD1 cells)” value (shortened to “IC50 (µg/mL), Blockade”) in assay [1] amounted to 1.13 µg/mL. Moreover, the “Percentage of Positive Cells (%)” value in [2] stood at 89.3%; in assay [3] it was 87.3%; in assay [4], 79.8%; in assay [5], 69%; in assay [6] it was 70.6%; in [7], 65.9%. The binding result in [8], in assay [9], in [10] and in assay [11] was “no binding (tested: 200 nM)” in each case. Besides, the Kd in assay [12] stood at 1.16 nM; in [13], 0.672 nM; in assay [14], 1.28 nM. Also, the koff in [12] was 0.000184 s⁻¹; in assay [13], 0.000146 s⁻¹; in assay [14], 0.000168 s⁻¹. Besides, the values for the kon in assay [12], in assay [13] and in [14] were 159000 M⁻¹ s⁻¹, 217000 M⁻¹ s⁻¹ and 131000 M⁻¹ s⁻¹, respectively.

B2: B20A09-N297A (antibody, V domains shown)
VH: QVQLQQSGPGLVKPSQTLSLTCAISRDGVSNISGAWNWIRQSPSRGLEWLGRTYYRAMWYKDYALSVKSRITINPDTSKNQFSLQLNSVTPEDTAVYYCAREEYSRGWGAFDIWGQGTMVTVSS
VL: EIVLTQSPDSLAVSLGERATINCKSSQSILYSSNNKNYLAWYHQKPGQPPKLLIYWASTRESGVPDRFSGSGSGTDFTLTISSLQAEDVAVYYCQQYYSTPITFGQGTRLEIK
As to B2, the “IC50 (µg/mL), Blockade” value in assay [1] is 0.789 µg/mL. Besides, the “Percentage of Positive Cells (%)” value was 83.1% in assay [2]; 79% in assay [3]; 72% in assay [4]; 69.9% in [5]; 67.8% in assay [6]; 64.2% in assay [7]. Besides, the binding result in [8], in assay [9], in assay [10] and in assay [11] was “no binding (tested: 200 nM)” throughout. Further, the dissociation constant (Kd) in [12] worked out at 4.6 nM; in [13] it was 2.95 nM; in assay [14], 41.5 nM. The koff was 0.000721 s⁻¹ in assay [12], 0.000612 s⁻¹ in [13] and 0.00955 s⁻¹ in assay [14]. Also, the kon in assay [12] was found to be 157000 M⁻¹ s⁻¹; in assay [13], 207000 M⁻¹ s⁻¹; in assay [14], 230000 M⁻¹ s⁻¹.

B3: B22E02-N297A (antibody, human IgG1, V domains shown)
VH: QVQLVQSGGGLVQPGRSLRLSCRASGFTFDGYSMNWVRQAPGKGLEWVGFIRSKGYGGTSESAASVKGRFTISRDDSKSIAYLQMNSLKTEDTAVYYCTRTRNWNDEGYFDYWGLGTLVTVSS
VL: DIQMTQSPSSLSASVGDRVTITCQASQDINKYLNWYQQKPGKAPKLLIYDASNSETGVPSRFSGSGSGTDFTFTISSLQPEDISTYYCQQYDILPITFGQGTRLEIK
notes: Human IgG1 with N297A (EU numbering) in the Fc
Turning to B3, the “IC50 (µg/mL), Blockade” value in assay [1] stood at 0.745 µg/mL. Besides, the “Percentage of Positive Cells (%)” value in assay [2] is 87.1%; in assay [3], 77.1%; in [4] it was 74.4%; in assay [5], 72.2%; in [6] it was 66.1%; in assay [7] it was 66.9%. For the same molecule, the binding result in [8], in [9], in [10] and in [11] was “no binding (tested: 200 nM)” in each case. The Kd came out at 1.29 nM in assay [12], 0.765 nM in assay [13] and 17.6 nM in assay [14]. In addition, the koff in assay [12] was found to be 0.000411 s⁻¹; in [13], 0.000331 s⁻¹; in [14], 0.00152 s⁻¹. In addition, the kon in [12] was found to be 318000 M⁻¹ s⁻¹; in [13], 432000 M⁻¹ s⁻¹; in assay [14], 86200 M⁻¹ s⁻¹.

B4: B21A06-N297A (antibody, human IgG1, V domains shown)
VH: QVQLQESGGDVVQPGRSLRLSCAASGFTFNNYGMHWVRQAPSKGLEWVAFIWYDGSNKYYGDSVKGRFTISRDNSKNTLYLQMNSLRAEDTALYYCARGDNWNSDAFDIWGPGTMVTVSS
VL: EIVMTQSPLSLPVTLGQPASISCRSSQSLVYTNGNTYLNWFQQRPGQSPRRLIYKVSSRDSGVPDRFSGSGSGTDFTLKISRVAAEDVGLYYCMQGTHWPLTFGGGTKVEIK
In the case of B4, in [1], the “IC50 (µg/mL), Blockade” value was 1.14 µg/mL. The “Percentage of Positive Cells (%)” value in assay [2] stood at 83.2%; in [3], 75.2%; in [4], 70.2%; in [5], 65.8%; in assay [6], 65.2%; in [7], 65%. For the same molecule, the binding result in assay [8], in [9], in assay [10] and in [11] was “no binding (tested: 200 nM)” each time. Besides, the equilibrium dissociation constant (Kd) stood at 8.65 nM in assay [12], 5.77 nM in assay [13] and 8.04 nM in [14]. The koff in [12] turned out to be 0.00167 s⁻¹; in [13], 0.00156 s⁻¹; in assay [14] it was 0.00187 s⁻¹. Moreover, the kon in assay [12] worked out at 193000 M⁻¹ s⁻¹; in assay [13], 271000 M⁻¹ s⁻¹; in assay [14], 232000 M⁻¹ s⁻¹.
